Data from the supplement of paper PMC10065799, “High-throughput profiling of sequence recognition by tyrosine kinases and SH2 domains using bacterial peptide display” (eLife, 2023).

Legend:
[1] = target: SHP2-C SH2; assay: SH2 binding enrichment of the phosphorylated peptide, bacterial display (enrichment ratio); higher = better substrate or ligand; peptides without Tyr show the background
[2] = target: c-Src SH2; assay: as above
[3] = target: Grb2 SH2 (UniProt P62993); assay: as above
[4] = target: MERTK (UniProt Q12866); assay: phosphorylation enrichment, bacterial display (enrichment ratio); higher = better substrate or ligand; peptides without Tyr show the background
[5] = target: Jak2 (UniProt O60674); assay: as above
[6] = test system: Fer (mouse); assay: as above
[7] = target: EPHB2 (UniProt P29323); assay: as above
[8] = target: FGFR1 (UniProt P11362); assay: as above
[9] = target: EPHB1 (UniProt P54762); assay: as above
[10] = test system: AncSZ; assay: as above
[11] = target: Fyn (UniProt P06241); assay: as above
[12] = target: Fes (UniProt P07332); assay: as above
[13] = test system: c-Abl (mouse); assay: as above
[14] = target: Hck (UniProt P08631); assay: as above
[15] = target: FGFR3 (UniProt P22607); assay: as above
[16] = test system: c-Src; assay: as above
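Wherever SH2 binding enrichment of the phosphorylated peptide, bacterial display is given: peptide library displayed on the E. coli surface as eCPX fusions, selected cells deep-sequenced, score is each peptide's frequency after selection divided by its frequency in the input.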
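Wherever phosphorylation enrichment, bacterial display is given: 11-residue human phosphosite peptides and single-mutation variants displayed on the E. coli surface, counted by deep sequencing, each peptide's frequency after selection divided by its frequency in the unselected input library; frequency after pTyr selection over input frequency; kinase dosed for 20-30% of maximal phosphorylation in three min.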

Sequence of FGFR1 (P11362 whole entry, looked up): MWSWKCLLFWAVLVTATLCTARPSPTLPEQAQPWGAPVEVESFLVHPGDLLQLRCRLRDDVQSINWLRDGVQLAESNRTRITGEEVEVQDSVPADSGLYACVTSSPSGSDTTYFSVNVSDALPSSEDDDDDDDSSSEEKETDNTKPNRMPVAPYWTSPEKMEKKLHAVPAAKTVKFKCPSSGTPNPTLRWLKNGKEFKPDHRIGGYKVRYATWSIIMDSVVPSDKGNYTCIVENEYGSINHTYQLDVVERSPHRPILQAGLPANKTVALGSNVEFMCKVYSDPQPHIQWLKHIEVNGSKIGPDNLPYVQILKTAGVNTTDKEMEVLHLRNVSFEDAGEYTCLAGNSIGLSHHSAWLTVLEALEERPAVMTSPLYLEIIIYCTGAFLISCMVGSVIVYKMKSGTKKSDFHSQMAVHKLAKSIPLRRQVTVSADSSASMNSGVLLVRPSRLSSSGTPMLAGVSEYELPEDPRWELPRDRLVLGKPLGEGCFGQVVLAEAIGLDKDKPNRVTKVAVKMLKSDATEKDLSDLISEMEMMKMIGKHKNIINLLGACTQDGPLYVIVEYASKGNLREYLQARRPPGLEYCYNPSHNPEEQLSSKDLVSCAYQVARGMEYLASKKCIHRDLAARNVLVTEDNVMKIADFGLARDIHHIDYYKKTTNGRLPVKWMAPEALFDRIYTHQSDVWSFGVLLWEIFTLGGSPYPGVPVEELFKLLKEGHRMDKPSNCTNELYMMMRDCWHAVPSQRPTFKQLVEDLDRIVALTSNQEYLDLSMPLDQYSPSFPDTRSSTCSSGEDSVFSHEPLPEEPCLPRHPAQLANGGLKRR
Sequence of Fyn (P06241 whole entry, looked up): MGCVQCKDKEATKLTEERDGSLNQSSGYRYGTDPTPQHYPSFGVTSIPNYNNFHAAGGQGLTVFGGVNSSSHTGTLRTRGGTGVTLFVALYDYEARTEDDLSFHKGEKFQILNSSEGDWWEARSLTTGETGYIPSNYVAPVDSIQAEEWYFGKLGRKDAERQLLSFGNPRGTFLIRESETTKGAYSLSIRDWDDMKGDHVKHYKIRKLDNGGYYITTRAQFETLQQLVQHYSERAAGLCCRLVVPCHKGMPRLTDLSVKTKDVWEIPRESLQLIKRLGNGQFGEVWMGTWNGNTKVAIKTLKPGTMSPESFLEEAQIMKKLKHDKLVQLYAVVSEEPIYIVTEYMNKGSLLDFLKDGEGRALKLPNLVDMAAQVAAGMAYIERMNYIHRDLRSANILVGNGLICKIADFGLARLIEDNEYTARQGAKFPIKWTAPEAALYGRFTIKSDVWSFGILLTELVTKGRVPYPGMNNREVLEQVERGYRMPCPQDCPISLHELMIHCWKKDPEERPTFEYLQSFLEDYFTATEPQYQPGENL
Sequence of Fes (P07332 whole entry, looked up): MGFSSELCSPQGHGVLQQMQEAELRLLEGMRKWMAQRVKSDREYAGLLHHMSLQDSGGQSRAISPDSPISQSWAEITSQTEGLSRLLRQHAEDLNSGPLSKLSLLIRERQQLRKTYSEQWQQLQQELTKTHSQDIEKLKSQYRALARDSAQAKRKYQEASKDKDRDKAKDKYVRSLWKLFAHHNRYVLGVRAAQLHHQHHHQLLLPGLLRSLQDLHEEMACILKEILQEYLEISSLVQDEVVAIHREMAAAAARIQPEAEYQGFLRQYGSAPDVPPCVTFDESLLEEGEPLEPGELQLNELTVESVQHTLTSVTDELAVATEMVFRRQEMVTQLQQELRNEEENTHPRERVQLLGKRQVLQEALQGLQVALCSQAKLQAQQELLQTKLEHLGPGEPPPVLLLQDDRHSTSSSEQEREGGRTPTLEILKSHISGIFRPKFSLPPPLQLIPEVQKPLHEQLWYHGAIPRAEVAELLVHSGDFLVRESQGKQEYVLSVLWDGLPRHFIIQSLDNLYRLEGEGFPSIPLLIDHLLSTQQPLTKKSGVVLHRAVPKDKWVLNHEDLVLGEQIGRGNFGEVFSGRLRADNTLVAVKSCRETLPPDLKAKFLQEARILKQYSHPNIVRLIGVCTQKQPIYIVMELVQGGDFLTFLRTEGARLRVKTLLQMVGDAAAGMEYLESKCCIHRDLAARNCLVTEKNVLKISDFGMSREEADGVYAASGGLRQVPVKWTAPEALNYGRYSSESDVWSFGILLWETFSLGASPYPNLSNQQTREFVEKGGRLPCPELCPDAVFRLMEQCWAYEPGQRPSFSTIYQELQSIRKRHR
Sequence of Hck (P08631 whole entry, looked up): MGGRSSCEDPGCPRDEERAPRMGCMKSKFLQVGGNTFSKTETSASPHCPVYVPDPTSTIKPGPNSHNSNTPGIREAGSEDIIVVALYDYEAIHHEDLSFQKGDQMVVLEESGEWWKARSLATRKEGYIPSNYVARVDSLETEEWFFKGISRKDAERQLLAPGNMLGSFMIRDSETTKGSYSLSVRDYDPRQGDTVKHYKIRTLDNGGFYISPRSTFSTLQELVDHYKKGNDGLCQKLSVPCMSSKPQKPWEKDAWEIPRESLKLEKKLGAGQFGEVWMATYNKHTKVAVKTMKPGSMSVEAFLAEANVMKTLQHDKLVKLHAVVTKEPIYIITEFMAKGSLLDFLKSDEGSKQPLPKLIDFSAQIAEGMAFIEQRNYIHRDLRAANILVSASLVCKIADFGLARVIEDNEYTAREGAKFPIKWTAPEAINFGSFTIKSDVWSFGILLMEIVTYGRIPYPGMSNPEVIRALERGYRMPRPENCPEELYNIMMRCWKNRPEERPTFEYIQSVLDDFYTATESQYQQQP
Sequence of EPHB2 (P29323 whole entry, looked up): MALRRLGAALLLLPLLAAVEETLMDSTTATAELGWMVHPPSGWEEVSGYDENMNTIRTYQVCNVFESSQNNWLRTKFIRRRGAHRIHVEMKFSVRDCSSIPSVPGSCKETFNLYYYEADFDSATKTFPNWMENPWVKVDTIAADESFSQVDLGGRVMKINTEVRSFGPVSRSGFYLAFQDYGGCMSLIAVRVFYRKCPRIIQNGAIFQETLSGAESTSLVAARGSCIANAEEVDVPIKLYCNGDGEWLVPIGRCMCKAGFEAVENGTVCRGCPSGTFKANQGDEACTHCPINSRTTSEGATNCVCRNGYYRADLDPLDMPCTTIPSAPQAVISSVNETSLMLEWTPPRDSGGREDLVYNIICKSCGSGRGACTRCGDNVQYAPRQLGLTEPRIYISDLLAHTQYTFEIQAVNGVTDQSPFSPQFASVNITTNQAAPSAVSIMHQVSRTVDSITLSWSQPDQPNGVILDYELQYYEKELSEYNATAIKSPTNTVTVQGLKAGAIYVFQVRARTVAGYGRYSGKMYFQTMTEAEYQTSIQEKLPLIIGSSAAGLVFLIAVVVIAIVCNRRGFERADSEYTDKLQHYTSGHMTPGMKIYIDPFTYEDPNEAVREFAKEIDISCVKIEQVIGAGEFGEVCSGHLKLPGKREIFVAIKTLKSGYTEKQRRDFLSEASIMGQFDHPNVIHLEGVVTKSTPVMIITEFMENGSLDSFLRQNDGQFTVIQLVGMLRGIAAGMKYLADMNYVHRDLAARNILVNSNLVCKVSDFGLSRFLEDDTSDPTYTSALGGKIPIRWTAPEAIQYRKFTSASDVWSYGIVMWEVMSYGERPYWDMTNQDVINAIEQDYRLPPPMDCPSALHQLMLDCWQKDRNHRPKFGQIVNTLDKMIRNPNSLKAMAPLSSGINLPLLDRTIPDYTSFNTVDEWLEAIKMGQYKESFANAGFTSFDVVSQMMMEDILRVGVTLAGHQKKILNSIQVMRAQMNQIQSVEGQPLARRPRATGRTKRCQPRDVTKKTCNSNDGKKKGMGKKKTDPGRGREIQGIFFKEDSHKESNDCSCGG
Sequence of Grb2 SH2 (P62993 whole entry, looked up): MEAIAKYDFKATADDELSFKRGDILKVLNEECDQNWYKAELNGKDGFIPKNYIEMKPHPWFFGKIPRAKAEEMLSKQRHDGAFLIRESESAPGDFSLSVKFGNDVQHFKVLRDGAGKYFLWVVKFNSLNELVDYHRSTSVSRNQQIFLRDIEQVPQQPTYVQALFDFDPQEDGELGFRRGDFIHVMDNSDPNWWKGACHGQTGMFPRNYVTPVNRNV
Sequence of EPHB1 (P54762 whole entry, looked up): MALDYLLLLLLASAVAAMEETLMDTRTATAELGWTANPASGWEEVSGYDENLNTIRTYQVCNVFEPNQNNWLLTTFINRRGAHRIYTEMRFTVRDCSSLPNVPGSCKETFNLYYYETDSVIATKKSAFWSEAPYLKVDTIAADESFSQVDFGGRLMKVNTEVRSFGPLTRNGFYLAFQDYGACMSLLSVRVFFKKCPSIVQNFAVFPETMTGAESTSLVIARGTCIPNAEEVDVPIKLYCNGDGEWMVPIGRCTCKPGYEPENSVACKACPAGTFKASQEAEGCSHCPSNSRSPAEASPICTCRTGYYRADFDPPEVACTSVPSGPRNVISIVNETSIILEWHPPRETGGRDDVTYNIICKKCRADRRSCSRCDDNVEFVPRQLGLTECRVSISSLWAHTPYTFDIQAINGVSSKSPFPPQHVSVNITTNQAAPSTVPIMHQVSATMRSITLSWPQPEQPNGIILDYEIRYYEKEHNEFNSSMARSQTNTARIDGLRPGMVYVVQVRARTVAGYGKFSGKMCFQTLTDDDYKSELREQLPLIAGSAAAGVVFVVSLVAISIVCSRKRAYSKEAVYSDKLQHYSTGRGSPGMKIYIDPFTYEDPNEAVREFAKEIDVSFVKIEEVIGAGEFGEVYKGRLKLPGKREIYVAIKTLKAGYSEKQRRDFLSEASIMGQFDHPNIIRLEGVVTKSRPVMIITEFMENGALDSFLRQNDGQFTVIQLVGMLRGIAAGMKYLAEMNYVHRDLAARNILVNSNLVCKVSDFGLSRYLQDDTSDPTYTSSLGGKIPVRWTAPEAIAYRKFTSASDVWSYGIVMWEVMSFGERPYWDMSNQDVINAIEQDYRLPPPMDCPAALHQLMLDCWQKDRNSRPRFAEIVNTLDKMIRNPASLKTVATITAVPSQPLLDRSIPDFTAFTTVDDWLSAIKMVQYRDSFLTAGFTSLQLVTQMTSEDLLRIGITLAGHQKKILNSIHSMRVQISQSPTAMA

Sequence | SH2 binding enrichment [1] | SH2 binding enrichment [2] | SH2 binding enrichment [3] | phosphorylation enrichment [4] | phosphorylation enrichment [5] | phosphorylation enrichment [6] | phosphorylation enrichment [7] | phosphorylation enrichment [8] | phosphorylation enrichment [9] | phosphorylation enrichment [10] | phosphorylation enrichment [11] | phosphorylation enrichment [12] | phosphorylation enrichment [13] | phosphorylation enrichment [14] | phosphorylation enrichment [15] | phosphorylation enrichment [16]
TVNIRYLLFPS [SERAC1_Y548_S543T] | 1.46 | 1.26 | 1.9 | 0.606 | 1.11 | 0.564 | 0.725 | 0.578 | 0.728 | 1.21 | 0.577 | 1.21 | 0.716 | 0.574 | 0.829 | 0.434
TYGVVYKARNK [CDK2_Y19] | 0.253 | 0.548 | 0.788 | 0.41 | 0.485 | 0.46 | 0.563 | 0.354 | 0.369 | 1.18 | 1.81 | 0.691 | 0.272 | 1.47 | 0.515 | 1.33
TYVKSYTIHYS [F5_Y2153_M2148T] | 0.783 | 0.652 | 0.791 | 0.483 | 0.633 | 0.568 | 0.722 | 0.4 | 0.594 | 1.27 | 0.508 | 1.15 | 0.625 | 0.567 | 0.696 | 0.44
VDASYCGGRGV [ANTXR2_Y381_Y381C] | 0.331 | 0.382 | 0.62 | 0.559 | 0.573 | 0.48 | 0.28 | 0.405 | 0.373 | 0.712 | 0.676 | 0.63 | 0.519 | 0.342 | 0.463 | 0.476
VDASYYGGRGV [ANTXR2_Y381] | 0.638 | 0.471 | 0.738 | 0.775 | 0.804 | 0.46 | 0.386 | 0.772 | 0.708 | 0.702 | 0.786 | 0.665 | 0.698 | 1.92 | 0.647 | 0.999
VDGFVYKLHPS [GCK_Y413_S411F] | 0.55 | 0.519 | 0.693 | 0.288 | 0.999 | 0.368 | 0.484 | 0.407 | 0.434 | 0.844 | 0.53 | 0.962 | 0.562 | 0.419 | 0.55 | 0.643
VDSTEYEVASQ [SLC7A7_Y7] | 0.932 | 0.545 | 0.946 | 0.436 | 1.04 | 0.598 | 0.646 | 0.544 | 0.632 | 1.25 | 0.499 | 1.16 | 0.825 | 0.549 | 0.776 | 0.514
VECQVYAEDPF [PCCA_Y401_R399Q_YF] | 0.501 | 0.498 | 0.764 | 0.408 | 0.99 | 0.663 | 0.548 | 0.446 | 0.6 | 1.22 | 0.52 | 1.24 | 0.748 | 0.587 | 1.16 | 0.602
VEDPEYAVTQP [STOML2_Y124_L129P] | 0.666 | 0.504 | 0.877 | 0.473 | 1.32 | 0.664 | 0.602 | 0.646 | 0.567 | 1.54 | 0.543 | 1.33 | 1 | 0.608 | 0.848 | 0.58
VEKEKYVSFIS [JMJD1C_Y596_M591V_YF] | 0.454 | 0.633 | 0.708 | 0.408 | 0.755 | 0.36 | 0.52 | 0.493 | 0.467 | 0.762 | 0.477 | 0.796 | 0.521 | 0.577 | 0.793 | 0.396
VFDHIYTTQSD [RET_Y928_L923V] | 0.864 | 0.738 | 0.902 | 0.579 | 0.671 | 0.443 | 0.467 | 0.55 | 0.458 | 0.978 | 2.12 | 0.871 | 0.44 | 1.14 | 0.682 | 2.41
VFFDLYGGEKF [PTPN11_Y66_D61V_YF] | 0.77 | 0.572 | 1.04 | 0.517 | 0.835 | 0.509 | 0.596 | 0.443 | 0.803 | 1.03 | 1.42 | 1.11 | 0.914 | 2.08 | 0.598 | 2.04
VFFFSYLLKNH [PTEN_Y180_YF] | 0.896 | 0.616 | 0.982 | 0.362 | 1.11 | 0.537 | 0.519 | 0.643 | 0.559 | 1.06 | 0.373 | 1.57 | 0.918 | 0.391 | 0.729 | 0.426
VGEGPYLISDL [ABCC12_Y7] | 0.663 | 0.414 | 0.786 | 0.468 | 1.05 | 0.578 | 0.5 | 0.466 | 0.65 | 0.952 | 0.507 | 1.01 | 0.768 | 0.483 | 0.734 | 0.752
VGGRIYTDDGL [PKLR_Y218_I219T] | 0.887 | 0.453 | 0.653 | 0.37 | 0.595 | 0.463 | 0.592 | 0.427 | 0.412 | 0.768 | 0.427 | 0.921 | 0.629 | 0.426 | 0.612 | 0.306
VGTTAYMAPEA [IRAK4_Y354] | 0.692 | 0.568 | 0.918 | 0.354 | 0.689 | 0.452 | 0.379 | 0.418 | 0.385 | 0.707 | 0.407 | 0.893 | 0.537 | 0.434 | 0.517 | 0.414
VIKDKYPKAHY [APTX_Y209_R213H] | 1.11 | 0.956 | 1.19 | 0.285 | 0.579 | 0.358 | 0.359 | 0.34 | 0.268 | 0.449 | 0.278 | 0.599 | 0.561 | 0.273 | 0.505 | 0.377

Sequence | SH2 binding enrichment [1] | SH2 binding enrichment [2] | SH2 binding enrichment [3] | phosphorylation enrichment [4] | phosphorylation enrichment [5] | phosphorylation enrichment [6] | phosphorylation enrichment [7] | phosphorylation enrichment [8] | phosphorylation enrichment [9] | phosphorylation enrichment [10] | phosphorylation enrichment [11] | phosphorylation enrichment [12] | phosphorylation enrichment [13] | phosphorylation enrichment [14] | phosphorylation enrichment [15] | phosphorylation enrichment [16]
VIKDKYPKVRF [APTX_Y209_A212V_YF] | 1.4 | 1.04 | 1.4 | 0.4 | 0.734 | 0.448 | 0.373 | 0.444 | 0.4 | 0.493 | 0.278 | 0.591 | 0.56 | 0.443 | 0.599 | 0.452
VIKDKYPQARY [APTX_Y209_K211Q] | 0.66 | 0.532 | 0.888 | 0.377 | 0.554 | 0.42 | 0.394 | 0.358 | 0.401 | 0.498 | 0.363 | 0.569 | 0.523 | 0.373 | 0.453 | 0.43
VIVRMYDYHVL [RPF2_Y109_G106V] | 1.53 | 1.36 | 1.54 | 2.39 | 0.975 | 4.25 | 3.26 | 3.25 | 2.24 | 1.2 | 0.499 | 1.04 | 0.746 | 0.587 | 2.12 | 0.498
VMLENYSNLLS [ZFP69_Y109_V113L] | 0.928 | 0.778 | 0.899 | 0.388 | 0.699 | 0.372 | 0.864 | 0.559 | 1.97 | 0.66 | 0.396 | 0.832 | 0.595 | 0.422 | 0.586 | 0.428
VMTLDYSKTVV [SETD2_Y770_V768L] | 0.722 | 0.458 | 0.845 | 0.372 | 0.775 | 0.449 | 0.52 | 0.419 | 0.571 | 0.719 | 0.37 | 0.738 | 0.643 | 0.439 | 0.701 | 0.415
VMTSKYRGGGG [HBA1_Y141_L137M] | 0.792 | 0.691 | 0.834 | 0.36 | 0.424 | 0.378 | 0.427 | 0.444 | 0.332 | 0.433 | 0.378 | 0.491 | 0.384 | 0.39 | 0.467 | 0.363
VMTVDYSKTVV [SETD2_Y770] | 1.19 | 0.528 | 0.937 | 0.35 | 0.615 | 0.493 | 0.417 | 0.456 | 0.379 | 0.638 | 0.451 | 0.749 | 0.574 | 0.434 | 0.485 | 0.319
VMVCAYLLHRG [PTEN_Y138_I135V] | 0.723 | 0.724 | 0.91 | 0.481 | 1.23 | 0.558 | 0.538 | 0.502 | 0.614 | 1.13 | 0.478 | 1.3 | 1.18 | 0.584 | 0.78 | 0.558
VNCHQYDGLVE [ATP2A2_Y407] | 0.983 | 12.5 | 1.18 | 0.499 | 0.848 | 0.598 | 0.659 | 0.614 | 0.658 | 1.06 | 0.626 | 1.2 | 0.672 | 0.651 | 0.818 | 0.531
VNFGAYINDFN [GLB1_Y488_K493N_YF] | 0.674 | 1.48 | 3.12 | 0.409 | 0.899 | 0.571 | 0.6 | 0.474 | 0.633 | 0.954 | 0.451 | 1.07 | 0.788 | 0.46 | 0.708 | 0.397
VNRSGYTLIRK [ATP6V0A2_Y688] | 0.814 | 1.74 | 0.56 | 0.386 | 0.429 | 0.366 | 0.444 | 0.315 | 0.333 | 0.64 | 0.533 | 0.672 | 0.568 | 0.429 | 0.452 | 0.43
VPLATYMQIYK [RPL21_Y30_R32Q] | 0.791 | 0.73 | 0.909 | 0.541 | 0.51 | 0.315 | 0.737 | 0.448 | 1.98 | 0.749 | 0.975 | 0.636 | 0.565 | 2.01 | 0.53 | 1.16
VPTSKYRGGGG [HBA1_Y141_L137P] | 0.597 | 0.558 | 0.929 | 0.392 | 0.572 | 0.327 | 0.341 | 0.392 | 0.284 | 0.392 | 0.452 | 0.457 | 0.446 | 0.355 | 0.349 | 0.363
VQDPAYLRDIN [OPRK1_Y369_D374N] | 0.555 | 0.454 | 0.75 | 0.333 | 0.766 | 0.46 | 0.485 | 0.415 | 0.608 | 0.828 | 0.467 | 0.974 | 0.604 | 0.442 | 0.623 | 0.488
VRFMAYTDEIF [F8_Y450_T454I] | 0.72 | 0.554 | 1.07 | 0.697 | 1.07 | 0.65 | 0.595 | 0.608 | 0.598 | 1.21 | 0.434 | 1.21 | 1.23 | 0.436 | 0.753 | 0.434
VSYDEYRYRSF [CFTR_Y515_V520F] | 0.717 | 0.676 | 0.72 | 0.522 | 0.983 | 0.435 | 0.467 | 0.486 | 0.69 | 0.89 | 0.548 | 0.951 | 0.916 | 0.598 | 0.606 | 0.939
